Data taken from patent US20210388087A1 (Chugai, published 2021).
Numbering of substitutions follows the chain as printed. In names and notes the source's numbering stands.

T1: Human CD3eg linker (human)
T1 construct: Single-chain construct; also called recombinant human CD3
T1 chain: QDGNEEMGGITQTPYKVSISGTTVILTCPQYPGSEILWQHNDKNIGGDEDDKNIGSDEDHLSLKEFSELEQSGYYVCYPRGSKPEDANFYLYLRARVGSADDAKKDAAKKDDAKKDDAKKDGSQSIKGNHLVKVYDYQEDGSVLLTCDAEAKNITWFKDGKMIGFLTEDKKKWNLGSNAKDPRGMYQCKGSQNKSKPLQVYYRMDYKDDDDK

B1: H183/L072 VL Q90E (antibody, name in Kabat numbering, V domains shown)
VH: QVQLVESGGGLVQPGRSLRLSCAASGFTFSNAWMHWVRQAPGKGLEWVAQIKDKGNAYAAYYAPSVKGRFTISRDDSKNSIYLQMNSLKTEDTAVYYCHYVHYASASTVLPAFGVDAWGQGTTVTVSS
VL: DIVMTQSPLSLPVTPGEPASISCQASQELVHMNRNTYLHWYQQKPGQAPRLLIYKVSNRFPGVPDRFSGSGSGTDFTLKISRVEAEDVGVYYCAEGTSVPFTFGQGTKLEIK
B2: H183/L072 VL R54P (antibody, name in Kabat numbering, V domains shown)
VH: B1 VH
VL: B1 VL with R59P, E95Q
B3: H183/L072 VL Q90T (antibody, name in Kabat numbering, V domains shown)
VH: B1 VH
VL: B1 VL with E95T
B4: H183/L072 VL R29Y (antibody, name in Kabat numbering, V domains shown)
VH: B1 VH
VL: B1 VL with R34Y, E95Q
B5: H183/L072 VL R54E (antibody, name in Kabat numbering, V domains shown)
VH: B1 VH
VL: B1 VL with R59E, E95Q
B6: H183/L072 VL R29W (antibody, name in Kabat numbering, V domains shown)
VH: B1 VH
VL: B1 VL with R34W, E95Q
B7: H183/L072 VL R54H (antibody, name in Kabat numbering, V domains shown)
VH: B1 VH
VL: B1 VL with R59H, E95Q
B8: H183/L072 VL S26E (antibody, name in Kabat numbering, V domains shown)
VH: B1 VH
VL: B1 VL with S26E, E95Q
B9: H183/L072 VL R54D (antibody, name in Kabat numbering, V domains shown)
VH: B1 VH
VL: B1 VL with R59D, E95Q
B10: H183/L072 VL R29A (antibody, name in Kabat numbering, V domains shown)
VH: B1 VH
VL: B1 VL with R34A, E95Q
B11: H183/L072 VL S26D (antibody, name in Kabat numbering, V domains shown)
VH: B1 VH
VL: B1 VL with S26D, E95Q
B12: H183/L072 VL R54W (antibody, name in Kabat numbering, V domains shown)
VH: B1 VH
VL: B1 VL with R59W, E95Q
B13: H183/L072 VL Q90S (antibody, name in Kabat numbering, V domains shown)
VH: B1 VH
VL: B1 VL with E95S
B14: H183/L072 VL R29L (antibody, name in Kabat numbering, V domains shown)
VH: B1 VH
VL: B1 VL with R34L, E95Q
B15: H183/L072 VL S26F (antibody, name in Kabat numbering, V domains shown)
VH: B1 VH
VL: B1 VL with S26F, E95Q
B16: H183/L072 VL R29H (antibody, name in Kabat numbering, V domains shown)
VH: B1 VH
VL: B1 VL with R34H, E95Q
B17: H183/L072 VL R29E (antibody, name in Kabat numbering, V domains shown)
VH: B1 VH
VL: B1 VL with R34E, E95Q
B18: H183/L072 VL R54G (antibody, name in Kabat numbering, V domains shown)
VH: B1 VH
VL: B1 VL with R59G, E95Q
B19: H183/L072 VL R29K (antibody, name in Kabat numbering, V domains shown)
VH: B1 VH
VL: B1 VL with R34K, E95Q
B20: H183/L072 VL R54Q (antibody, name in Kabat numbering, V domains shown)
VH: B1 VH
VL: B1 VL with R59Q, E95Q
B21: H183/L072 VL R29N (antibody, name in Kabat numbering, V domains shown)
VH: B1 VH
VL: B1 VL with R34N, E95Q
B22: H183/L072 VL R29I (antibody, name in Kabat numbering, V domains shown)
VH: B1 VH
VL: B1 VL with R34I, E95Q
B23: H183/L072 VL R54V (antibody, name in Kabat numbering, V domains shown)
VH: B1 VH
VL: B1 VL with R59V, E95Q
B24: H183/L072 VL R54A (antibody, name in Kabat numbering, V domains shown)
VH: B1 VH
VL: B1 VL with R59A, E95Q
B25: H183/L072 VL R29T (antibody, name in Kabat numbering, V domains shown)
VH: B1 VH
VL: B1 VL with R34T, E95Q
B26: H183/L072 VL R54M (antibody, name in Kabat numbering, V domains shown)
VH: B1 VH
VL: B1 VL with R59M, E95Q
B27: H183/L072 VL R29D (antibody, name in Kabat numbering, V domains shown)
VH: B1 VH
VL: B1 VL with R34D, E95Q
B28: H183/L072 VL Q90K (antibody, name in Kabat numbering, V domains shown)
VH: B1 VH
VL: B1 VL with E95K
B29: H183/L072 VL R29G (antibody, name in Kabat numbering, V domains shown)
VH: B1 VH
VL: B1 VL with R34G, E95Q
B30: H183/L072 VL R54I (antibody, name in Kabat numbering, V domains shown)
VH: B1 VH
VL: B1 VL with R59I, E95Q
B31: H183/L072 VL R54L (antibody, name in Kabat numbering, V domains shown)
VH: B1 VH
VL: B1 VL with R59L, E95Q
B32: H183/L072 VL R54N (antibody, name in Kabat numbering, V domains shown)
VH: B1 VH
VL: B1 VL with R59N, E95Q
B33: H183/L072 VL R29F (antibody, name in Kabat numbering, V domains shown)
VH: B1 VH
VL: B1 VL with R34F, E95Q
B34: H183/L072 VL R54S (antibody, name in Kabat numbering, V domains shown)
VH: B1 VH
VL: B1 VL with R59S, E95Q
B35: H183/L072 VL R54T (antibody, name in Kabat numbering, V domains shown)
VH: B1 VH
VL: B1 VL with R59T, E95Q
B36: H183/L072 VL R54F (antibody, name in Kabat numbering, V domains shown)
VH: B1 VH
VL: B1 VL with R59F, E95Q
B37: H183/L072 VL R29M (antibody, name in Kabat numbering, V domains shown)
VH: B1 VH
VL: B1 VL with R34M, E95Q
B38: H183/L072 VL R29V (antibody, name in Kabat numbering, V domains shown)
VH: B1 VH
VL: B1 VL with R34V, E95Q
B39: H183/L072 VL R54K (antibody, name in Kabat numbering, V domains shown)
VH: B1 VH
VL: B1 VL with R59K, E95Q
B40: H183/L072 VL R29S (antibody, name in Kabat numbering, V domains shown)
VH: B1 VH
VL: B1 VL with R34S, E95Q
B41: H183/L072 VL Q90H (antibody, name in Kabat numbering, V domains shown)
VH: B1 VH
VL: B1 VL with E95H
B42: H183/L072 VL R29Q (antibody, name in Kabat numbering, V domains shown)
VH: B1 VH
VL: B1 VL with R34Q, E95Q

Target: T1, Human CD3eg linker
Assay: SPR; fold vs parent H183/L072

Q: With B1 as the binder, how does the “fold change of affinity” value read?
A: 0.4 fold

Q: How did the “fold change of affinity” value turn out when B2 was run?
A: 0.9 fold

Q: With B3 as the binder, how does the “fold change of affinity” value read?
A: 0 fold

Q: For B4, which “fold change of affinity” value is on record?
A: 0.5 fold

Q: With B5 as the binder, how does the “fold change of affinity” value read?
A: 0.8 fold

Q: Which “fold change of affinity” value does the source give for B6 here?
A: 0.5 fold

Q: With B7 as the binder, how does the “fold change of affinity” value read?
A: 1.9 fold

Q: How did the “fold change of affinity” value turn out when B8 was run?
A: 0.7 fold

Q: How did the “fold change of affinity” value turn out when B9 was run?
A: 0.5 fold

Q: Which “fold change of affinity” value does the source give for B10 here?
A: 0.6 fold

Q: B11 was tested. Which “fold change of affinity” value did it give?
A: 0.8 fold

Q: B12 was tested. Which “fold change of affinity” value did it give?
A: 1.4 fold

Q: With B13 as the binder, how does the “fold change of affinity” value read?
A: 0 fold

Q: With B14 as the binder, how does the “fold change of affinity” value read?
A: 0.8 fold

Q: With B15 as the binder, how does the “fold change of affinity” value read?
A: 0.6 fold

Q: With B16 as the binder, how does the “fold change of affinity” value read?
A: 0.8 fold

Q: With B17 as the binder, how does the “fold change of affinity” value read?
A: 0.3 fold

Q: How did the “fold change of affinity” value turn out when B18 was run?
A: 1.1 fold

Q: For B19, which “fold change of affinity” value is on record?
A: 1.1 fold

Q: How did the “fold change of affinity” value turn out when B20 was run?
A: 1.2 fold

Q: How did the “fold change of affinity” value turn out when B21 was run?
A: 0.3 fold

Q: How did the “fold change of affinity” value turn out when B22 was run?
A: 0.2 fold

Q: B23 was tested. Which “fold change of affinity” value did it give?
A: 1.1 fold

Q: Which “fold change of affinity” value does the source give for B24 here?
A: 1 fold

Q: With B25 as the binder, how does the “fold change of affinity” value read?
A: 0.8 fold

Q: How did the “fold change of affinity” value turn out when B26 was run?
A: 1.7 fold

Q: B27 was tested. Which “fold change of affinity” value did it give?
A: 0.3 fold

Q: With B28 as the binder, how does the “fold change of affinity” value read?
A: 0 fold

Q: Which “fold change of affinity” value does the source give for B29 here?
A: 1.2 fold

Q: For B30, which “fold change of affinity” value is on record?
A: 1.3 fold

Q: For B31, which “fold change of affinity” value is on record?
A: 1.3 fold

Q: For B32, which “fold change of affinity” value is on record?
A: 1 fold

Q: For B33, which “fold change of affinity” value is on record?
A: 0.6 fold

Q: With B34 as the binder, how does the “fold change of affinity” value read?
A: 1.2 fold

Q: For B35, which “fold change of affinity” value is on record?
A: 0.8 fold

Q: With B36 as the binder, how does the “fold change of affinity” value read?
A: 1.5 fold

Q: B37 was tested. Which “fold change of affinity” value did it give?
A: 0.7 fold

Q: How did the “fold change of affinity” value turn out when B38 was run?
A: 0.3 fold

Q: B39 was tested. Which “fold change of affinity” value did it give?
A: 1.7 fold

Q: Which “fold change of affinity” value does the source give for B40 here?
A: 0.8 fold

Q: Which “fold change of affinity” value does the source give for B41 here?
A: 0.1 fold

Q: Which “fold change of affinity” value does the source give for B42 here?
A: 0.7 fold
